The source of these data is paper PMC10313822, “Disruption of ER ion homeostasis maintained by an ER anion channel CLCC1 contributes to ALS-like pathologies” (Cell Research, 2023).

This data set deals with the molecule itself. In words: SEC; Superose 6 Increase, TBS (50 mM Tris-HCl pH 7.4, 150 mM NaCl) with 0.025% DDM and 2 mM DTT; size estimated from standard markers.

B1: purified full-length mouse CLCC1, His-tagged (natural protein, UniProt Q99LI2 19-539, looked up)
chain: HDDDWIDPTDMLNYDAASGTMRKSQVRSGTSEKKEVSPDSSEAEELSDCLHRLDSLTHKVDSCEKKKMKDYESQSNPVFRRYLNKILIEAGKLGLPDENKVEMRYDAEILLSRQTLLEIQKFLSGEEWKPGALDDALSDILINFKCHDSEAWKWQFEDYFGVDPYNVFMVLLCLLCLVVLVATELWTYVRWYTQMKRIFIISFLLSLAWNWIYLYKMAFAQHQANIAGMEPFDNLCAKKMDWTGSLWEWFTSSWTYKDDPCQKYYELLIVNPIWLVPPTKALAITFTNFVTEPLKHIGKGAGEFIKALMKEIPVLLQIPVLAILALAVLSFCYGAGRSVPMLRHFGGPDREPPRALEPDDRRRQKGLDYRLHGGAGDADFSYRGPAGSIEQGPYDKMHASKRDALRQRFHSGNKSPEVLRAFDLPDTEAQEHPEVVPSHKSPIMNTNLETGELPGESTPTEYSQSAKDVSGQVPSAGKSSPTVDKAQLKTDSECSPPGGCPPSKEAAVAAHGTEPVSSPCG
notes: CLCC1, mouse, full length (NM_145543.2; 539 residues by the printed limits of the C-terminal polypeptide 355-539); The predicted signal peptide may be removed in insect cells; also called mCLCC1; WT mCLCC1; source: High Five insect cells (baculovirus), purified (Ni-NTA, Superose 6 Increase); not shown: His10, C-terminal, kept
As for B1, the binding result is on record as “binds”.

B2: C350F mutant mouse CLCC1, purified (natural protein, UniProt Q99LI2 19-539, looked up)
chain: HDDDWIDPTDMLNYDAASGTMRKSQVRSGTSEKKEVSPDSSEAEELSDCLHRLDSLTHKVDSCEKKKMKDYESQSNPVFRRYLNKILIEAGKLGLPDENKVEMRYDAEILLSRQTLLEIQKFLSGEEWKPGALDDALSDILINFKCHDSEAWKWQFEDYFGVDPYNVFMVLLCLLCLVVLVATELWTYVRWYTQMKRIFIISFLLSLAWNWIYLYKMAFAQHQANIAGMEPFDNLCAKKMDWTGSLWEWFTSSWTYKDDPCQKYYELLIVNPIWLVPPTKALAITFTNFVTEPLKHIGKGAGEFIKALMKEIPVLLQIPVLAILALAVLSFFYGAGRSVPMLRHFGGPDREPPRALEPDDRRRQKGLDYRLHGGAGDADFSYRGPAGSIEQGPYDKMHASKRDALRQRFHSGNKSPEVLRAFDLPDTEAQEHPEVVPSHKSPIMNTNLETGELPGESTPTEYSQSAKDVSGQVPSAGKSSPTVDKAQLKTDSECSPPGGCPPSKEAAVAAHGTEPVSSPCG
notes: CLCC1, mouse, full length, with C350F; also called C350F mCLCC1; source: High Five insect cells (baculovirus), purified (Ni-NTA, Superose 6 Increase)
On to B2, for which the binding result was “binds”.
